Positions of bridges follow the written chain, without caps; N, C: chain ends.
What was measured:
[1] = biological target: VEGFR2 expressed by HUVEC (human, UniProt P35968 20-1356); assay: cell-based or functional assay
[2] = biological target: T1, fusion protein of human VEGFR2 and Fc (human, UniProt P35968 20-764, limits assumed); assay: BLI (ForteBio), VEGFR2-Fc on anti-human IgG capture biosensors, peptide in solution, 30 C
T1 construct: not shown: Fc
Description: A dissociation constant of binding between the cyclic peptide L1 or BL1 thus synthesized and human VEGFR2 or mouse VEGFR2 was determined by BLI method (ForteBio). A fusion protein of VEGFR2 and Fc was immobilized onto Anti-human IgG Capture Biosensors and the cyclic peptide L1 or BL1 varied in concentration was analyzed. The temperature was set at 30° C.

T1 sequence (P35968 20-764 limits assumed): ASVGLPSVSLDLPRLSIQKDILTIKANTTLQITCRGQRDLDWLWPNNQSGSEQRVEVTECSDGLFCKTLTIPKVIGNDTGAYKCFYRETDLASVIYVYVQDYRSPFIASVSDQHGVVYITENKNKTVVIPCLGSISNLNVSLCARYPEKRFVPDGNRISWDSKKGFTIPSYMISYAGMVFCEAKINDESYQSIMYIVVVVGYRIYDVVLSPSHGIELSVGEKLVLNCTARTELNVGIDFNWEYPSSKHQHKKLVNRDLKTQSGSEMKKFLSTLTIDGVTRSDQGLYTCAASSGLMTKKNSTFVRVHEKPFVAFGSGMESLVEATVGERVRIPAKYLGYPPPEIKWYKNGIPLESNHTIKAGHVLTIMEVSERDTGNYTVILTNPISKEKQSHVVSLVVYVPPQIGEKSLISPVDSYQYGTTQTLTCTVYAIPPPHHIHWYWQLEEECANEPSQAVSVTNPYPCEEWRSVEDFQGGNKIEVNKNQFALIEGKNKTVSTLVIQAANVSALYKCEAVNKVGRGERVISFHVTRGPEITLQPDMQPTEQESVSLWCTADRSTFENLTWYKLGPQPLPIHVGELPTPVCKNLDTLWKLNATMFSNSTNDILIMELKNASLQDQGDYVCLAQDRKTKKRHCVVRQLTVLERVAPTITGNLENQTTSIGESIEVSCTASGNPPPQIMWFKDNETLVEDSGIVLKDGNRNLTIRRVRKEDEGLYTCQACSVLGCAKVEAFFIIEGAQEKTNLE
Chain of VEGFR2 expressed by HUVEC (P35968 20-1356): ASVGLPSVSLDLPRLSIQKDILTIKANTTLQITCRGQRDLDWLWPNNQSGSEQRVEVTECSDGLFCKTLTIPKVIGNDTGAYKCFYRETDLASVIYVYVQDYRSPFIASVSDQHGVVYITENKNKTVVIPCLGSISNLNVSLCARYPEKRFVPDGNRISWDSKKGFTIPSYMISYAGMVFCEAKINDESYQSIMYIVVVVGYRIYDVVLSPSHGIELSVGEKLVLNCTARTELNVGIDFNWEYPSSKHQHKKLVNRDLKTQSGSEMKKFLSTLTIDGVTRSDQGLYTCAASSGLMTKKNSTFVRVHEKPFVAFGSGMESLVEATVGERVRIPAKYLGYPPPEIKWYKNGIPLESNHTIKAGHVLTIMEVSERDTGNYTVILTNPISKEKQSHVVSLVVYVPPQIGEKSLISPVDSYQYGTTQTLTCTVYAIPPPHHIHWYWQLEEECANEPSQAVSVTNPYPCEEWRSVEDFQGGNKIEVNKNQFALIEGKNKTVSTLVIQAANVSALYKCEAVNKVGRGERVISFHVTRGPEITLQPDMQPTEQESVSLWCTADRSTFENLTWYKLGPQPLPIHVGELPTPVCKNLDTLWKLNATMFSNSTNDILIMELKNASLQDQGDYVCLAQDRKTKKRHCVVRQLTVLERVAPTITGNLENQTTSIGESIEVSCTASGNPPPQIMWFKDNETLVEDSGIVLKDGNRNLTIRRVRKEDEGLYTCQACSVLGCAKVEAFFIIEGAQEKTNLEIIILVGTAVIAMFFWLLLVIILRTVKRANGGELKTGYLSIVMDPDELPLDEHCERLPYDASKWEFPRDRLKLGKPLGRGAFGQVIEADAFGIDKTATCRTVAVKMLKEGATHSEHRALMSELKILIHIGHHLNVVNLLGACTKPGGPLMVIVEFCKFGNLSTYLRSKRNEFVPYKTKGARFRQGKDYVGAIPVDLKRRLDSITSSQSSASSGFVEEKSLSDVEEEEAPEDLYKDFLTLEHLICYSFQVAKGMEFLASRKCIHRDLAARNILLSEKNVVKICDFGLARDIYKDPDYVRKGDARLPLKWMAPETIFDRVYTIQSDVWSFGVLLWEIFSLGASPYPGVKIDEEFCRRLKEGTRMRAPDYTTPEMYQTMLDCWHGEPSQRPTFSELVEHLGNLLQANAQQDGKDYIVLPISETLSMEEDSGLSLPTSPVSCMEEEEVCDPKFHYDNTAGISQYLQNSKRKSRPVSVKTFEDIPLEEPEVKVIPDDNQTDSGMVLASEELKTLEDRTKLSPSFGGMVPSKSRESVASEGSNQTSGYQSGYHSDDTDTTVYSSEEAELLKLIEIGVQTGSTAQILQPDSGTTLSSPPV

growth inhibition of HUVEC with 10 ng/mL VEGF (BrdU method), IC50 [1]: 60 nM
Kd [2]: 94 nM
koff [2]: 0.002 s⁻¹
kon [2]: 20000 M⁻¹ s⁻¹
B1: cyclic peptide L1, synthesized: ClAc-Phe-Val-Val-Val-Ser-Thr-Asp-Pro-Trp-Val-Asn-Gly-Leu-Tyr-Ile-Asp-Cys-Gly (peptide)
peptide: {CH2CO}-FVVVSTDPWVNGLYIDCG-NH2
modifications: thioether N-17
SMILES: CC[C@H](C)[C@@H]1NC(=O)[C@H](Cc2ccc(O)cc2)NC(=O)[C@H](CC(C)C)NC(=O)CNC(=O)[C@H](CC(N)=O)NC(=O)[C@H](C(C)C)NC(=O)[C@H](Cc2c[nH]c3ccccc23)NC(=O)[C@@H]2CCCN2C(=O)[C@H](CC(=O)O)NC(=O)[C@H]([C@@H](C)O)NC(=O)[C@H](CO)NC(=O)[C@H](C(C)C)NC(=O)[C@H](C(C)C)NC(=O)[C@H](C(C)C)NC(=O)[C@H](Cc2ccccc2)NC(=O)CSC[C@@H](C(=O)NCC(N)=O)NC(=O)[C@H](CC(=O)O)NC1=O
notes: Made by Fmoc solid-phase synthesis, cyclised and HPLC purified; this form was used in BLI and in the cell assays

Source: patent US20150299258A1 (UNIVERSITY OF TOKYO, published 2015)
